{"source": "patent US20170204402A1", "about": "(published 2017)", "binders": {"B1": {"name": "3K1K-CaM fusion (VHH)", "VHH": "QVQLVESGGALVQPGGSLRLSCAASGFPVNRYSMRWYRQAPGKEREWVAGMSSAGDRSSYEDSVKGRFTISRDDARNTVYLQMNSLKPEDTAVYYCNVNVGFEYWGQGTQVTVSS"}}, "molecular_target": "T1, ACM335-FKBP hybrid protein (from plasmid pCm-ACM335-FKBP) (Bordetella pertussis, UniProt P62942 2-108)", "T1 construct": "also called ACM-FKBP", "assay": "HSACH in vivo complementation in E. coli DHM1 (data not shown)", "data": [{"binder": "B1", "values": [{"measurement": "binding result", "value": "no binding"}]}]}
